Assay results: patent US20210147531A1 (AstraZeneca / MedImmune, published 2021)
Numbering of substitutions follows the chain as printed. Names and notes keep the numbering of the source. Values joined by “and” are separate entries in the source; they are usually repeats but may differ in a detail not shown here. Identical values can stand only once.

How the values were obtained:
human VEGF165 [1] = biological target: T1, human VEGF165 (human, UniProt P15692-4 27-191); test: capture ELISA, Fab on anti-Fd, biotinylated VEGF165
T1 construct: the isoform is VEGF165; also called huVEGF; recombinant VEGF165
Protocol: (§1) Briefly, this capture ELISA involved coating individual wells of a 96-well Maxisorp Immunoplate with approximately 50 ng of a sheep anti-human Fd antibody (Biodesign International, ME) in a carbonate buffer at pH 8.5 overnight at 4° C. The next day, the plate was blocked with 3% BSA in PBS buffer for 1 hour at room temperature. Fab supernatant was then added to the plate and incubated at room temperature for 1 hour. After washing, the biotinylated VEGF165 protein was added to the well and the mixture was incubated for 1.5 hours at room temperature. This was followed by incubation with neutravidin-horseradish peroxydase (HRP) conjugate (Pierce, Ill.) for approximately 40 minutes at room temperature. HRP activity was detected with tetra-methyl-benzidine (TMB) substrate and the reaction quenched with 0.2 M H2SO4. Plates were read at 450 nm.
(§2) The Fab concentration was determined by comparing the ELISA signals with the signals generated by the reference Fab.

human VEGF165 [2] = biological target: T1, human VEGF165; test: ELISA of Fabs at normalised concentrations on VEGF165 (Example 5), OD450 against Fab ug/ml
Protocol: as §1, §2

human VEGF165 [3] = biological target: T1, human VEGF165; test: KinExA, IgG in solution, huVEGF165-coated beads
Protocol: Coated beads were then separated (spin) from unreacted huVEGF protein solution, and blocked with 1M Tris, pH 8, containing BSA at 10 mg/mL), for approximately 15 minutes at room temperature. After this, the bead slurry was spun to remove the blocking solution, and then the block step was repeated for approximately 2 hours using fresh block buffer, and stored at 4° C. until used. Prior to use, the huVEGF-coated beads were transferred to a bead vial, resuspended in approximately 27 mLs of instrument buffer (10 mM HEPES+300 mM NaCl+5 mM CaCl₂+0.05% P20+0.02% NaN₃, pH8), and affixed to the KinExA instrument. […] These concentrations of mAbs were chosen to allow each KD measurement to be made under both receptor- and KD-controlled conditions, leading to more rigorous estimations of reagent activity and affinity, respectively. […] Two-fold serial dilutions of huVEGF protein were then titrated across 9 of the tubes in each mAb series, followed by two additional 10-fold-dilutions, leaving one tube as the mAb-only, “zero” control. […] Based on theory curve simulations available through the vendor software (Sapidyne Instruments, Boise, Idaho), the mixtures were incubated 1-4 days at room temperature to allow binding to reach equilibrium. At the end of this time, signal-testing experiments were conducted to determine the appropriate run conditions for each set of measurements.

human VEGF121 = biological target: T2, human VEGF121 (human, UniProt P15692-9 27-147); test: ELISA on human VEGF121 (Example 8), OD 450 nm against antibody concentration, 4-parameter fit
T2 construct: the isoform is VEGF121
T2 sequence (looked up): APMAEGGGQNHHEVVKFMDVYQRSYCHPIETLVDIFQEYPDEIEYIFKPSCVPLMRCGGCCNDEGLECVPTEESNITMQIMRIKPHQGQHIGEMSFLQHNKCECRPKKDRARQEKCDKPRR
Protocol: (§3) EC50 values were determined using non-linear regression analysis (log dose response, 4-parameter fit curves) in GraphPad Prism, version 5.01 (San Diego, Calif.).

mouse VEGF164 [4] = biological target: T3, mouse VEGF164 (mouse, UniProt Q00731-2 27-190); test: ELISA on murine VEGF164 (Example 7), O.D. 450 nm against antibody concentration, 4-parameter fit
T3 construct: also called mVEGF164; murine VEGF164
T3 sequence (looked up): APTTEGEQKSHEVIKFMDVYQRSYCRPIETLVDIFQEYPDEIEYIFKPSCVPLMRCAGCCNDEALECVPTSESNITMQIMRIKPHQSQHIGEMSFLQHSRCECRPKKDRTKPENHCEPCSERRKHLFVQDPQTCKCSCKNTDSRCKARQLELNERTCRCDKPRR
Protocol: as §3

human VEGF165 [5] = biological target: T1, human VEGF165; test: ELISA, coated VEGF, IgG, anti-human-Fc-HRP
Protocol: (§4) The 96-well microtiter plates (Corning) were coated with 50 μl/well of human and mouse VEGF165 or VEGF121 at a concentration of 5 μg/ml in PBS at 4° C. overnight. After being washed three times with PBS containing 0.1% Tween-20 (PBST), the wells were blocked with blocking buffer (4% skimmed milk in PBS). After 1 h incubation at room temperature, the plates were washed with PBST and a 2-fold serial dilution of the antibodies (starting from 8 nM) in blocking buffer were added and incubated for 1 hour at room temperature. The antibody solution was removed by washing with PBST followed by 1 hour incubation at room temperature with a 1:3000 dilution of an anti-human-Fc-HRP antibody (Thermo Scientific) prepared in PBST. Binding was visualized with the addition of 50 μL of SureBlue Reserve TMB substrate (KPL) for 5 minutes at room temperature and the reaction was stopped by adding 50 μL of TMB Stop Solution (KPL). The absorbance at 450 nm was measured using a microtiter plate reader. The data were analyzed using Prism 5 software (GraphPad).

mouse VEGF164 [6] = biological target: T3, mouse VEGF164; test: ELISA, coated VEGF, IgG, anti-human-Fc-HRP
Protocol: as §4

human VEGF165 [7] = biological target: T1, human VEGF165; test: VEGF165 ELISA of purified IgGs, OD450 against ug/ml

B1: D04 Fab (Fab, V domains shown)
VH: EVQLLESGGGLVQPGGSLRLSCAASGFTFSWYEMYWVRQAPGKGLEWVSSISPSGGWTMYADSVKGRFTISRDNSKNTLYLQMNSLRAEDTAVYYCATPLYSSDGLSAGDIWGQGTMVTVSS
VL: EIVLTQSPATLSLSPGERATLSCRASQSVHSSYLAWYQQKPGQAPRLLIYGASSRATGIPDRFSGSGSGTDFTLTISRLEPEDFAVYYCQQSYSTPSFGQGTRLEIT
notes: Point mutant of M4 tested as Fab; Fab constant parts not specified
fold improvement in EC50 compared to germline E06 as Fabs (human VEGF165 [1]): > 10 fold

B2: E06 germline M4 Fab (Fab, V domains shown)
VH: B1 VH
VL: B1 VL with H30S
notes: Fab; D1E/Q3V/M4L/T86V in the VL against E06; Fab constant parts not specified; also called germline clone M4; germline E06
binding result (human VEGF165 [2]): binds

B3: I20 Fab (Fab, V domains shown)
VH: B1 VH
VL: B1 VL with H30S, S92D
notes: as for B1
fold improvement in EC50 compared to germline E06 as Fabs (human VEGF165 [1]): > 10 fold

B4: J05 Fab (Fab, V domains shown)
VH: B1 VH
VL: B1 VL with H30S, S94R
notes: Point mutant (VL S94R) of M4 tested as Fab; Fab constant parts not specified; also called point mutant J05
fold improvement in EC50 compared to germline E06 as Fabs (human VEGF165 [1]): > 10 fold
fold improvement of binding over E06 (human VEGF165 [1]): ~25 fold

B5: J05 IgG (antibody, V domains shown)
VH: B1 VH
VL: EIVLTQSPATLSLSPGERATLSCRASQSVSSSYLAWYQQKPGQAPRLLIYGASSRATGIPDRFSGSGSGTDFTLTISRLEPEDFAVYYCQQSYRTPSFGQGTRLEITR
FoldΔ KD vs. EO6-wt (human VEGF165 [3]): 11 fold
Kd (human VEGF165 [3]): 0.22 nM
EC50 (human VEGF121): 4.97 nM
EC50 (mouse VEGF164 [4]): 0.046 nM

B6: E06 full length IgG (antibody, V domains shown)
VH: B1 VH
VL: B5 VL with E1D, V3Q, L4M, V86T, R94S
notes: also called antibody E06; Wt (E06)
EC50 (human VEGF165 [5]): 0.048 nM
EC50 (mouse VEGF164 [6]): 0.049 nM
Kd (human VEGF165 [3]): 2.52 nM
EC50 (read off the curve) (human VEGF165 [7]): ~0.07 µg/mL and ~0.06 µg/mL
EC50 (mouse VEGF164 [4]): 0.03 nM

B7: H1DR IgG (antibody, V domains shown)
VH: B1 VH
VL: B5 VL with S30H, S92D
EC50 (read off the curve) (human VEGF165 [7]): ~0.1 µg/mL
EC50 (human VEGF121): 0.017 nM
EC50 (mouse VEGF164 [4]): 0.043 nM
